In patent US20230146533A1, “KERATIN BD-10, PREPARATION METHOD THEREFOR AND PHARMACEUTICAL COMPOSITION AND USE THEREOF” (INSTITUTE OF MATERIA MEDICA, CHINESE ACADEMY OF MEDICAL …, priority 2019, published 2023):

Assays:
[1] = test system: phenol red excretion in mice; assay: Expectorant test, phenol red excretion method in mice; assay type: in vivo, ICR mice; details: for Phenol red excretion: 2.5% phenol red i.p. one hour later, trachea after 30 minutes, X ± SEM
Experimental: Animals: male ICR mice; Drugs and reagents: Mucosolvan (ambroxol hydrochloride tablets), phenol red, sodium bicarbonate, protein BD-10; Instruments: centrifuge (Sigma-3K15 type), balance (XS105DU type), Microplate tester (BIO-TEK type). Experiment grouping: • Solvent control group; • Mucosolvan 30 mg/kg group; • Protein BD-10, 20 mg/kg group, 50 mg/kg group.
The animals were fasted and water was taken freely 16 hours before the experiment. Orally administered Mucosolvan and different doses of protein BD-10 (administration volume 10 ml/kg) in groups, and the solvent control group was given the same volume of distilled water. One hour later, 2.5% phenol red solution was injected intraperitoneally. Mice were sacrificed by neck dislocation after 30 minutes. Take a trachea from below the thyroid cartilage to the branch of the trachea, and put the trachea into 3 ml 5% NaHCO3 solution and let it stand for 3 hours. Take 1 ml of the supernatant and centrifuge at 3000 rpm for 5 minutes. Measure and record the absorbance at 546 nm. According to the standard curve of phenol red, the excretion of phenol red was calculated.
Record the time point of oral administration, the time point of intraperitoneal injection of 2.5% phenol red solution, and the time point of taking the trachea respectively; The absorbance of each group of samples was measured by the microplate reader at 546 nm, Calculate the excretion of phenol red according to the standard curve of phenol red. Calculate the mean and standard error of the data in each group, and use TTEST to compare the solvent control group with other groups, and P<0.05 is considered as a significant difference.

[2] = test system: PLO-induced epilepsy in mice; assay: Pilocarpine (PLO) induced convulsive epilepsy in mice; assay type: in vivo, ICR mice; parameters: mortality rate: unit not given here; details: for Grade IV seizure rate / mortality rate / Grade II seizure incubation period / Grade III seizure incubation period / Grade IV seizure incubation period / Cases of deaths / Cases of Grade IV: PLO 225 mg/kg i.p.; for Grade IV seizure rate / mortality rate: 10 mice; for Grade II seizure incubation period / Grade III seizure incubation period / Grade IV seizure incubation period: mean ± SEM; for Grade IV seizure incubation period: mice not reaching Grade IV recorded as maximum 1800 seconds; for Cases of deaths / Cases of Grade IV: of 10 mice; for Cases of Grade IV: 30 minutes observation
Experimental: Animals: male ICR mice; Drugs: Pilocarpine HCl (PLO, pilocarpine, pilocarpine hydrochloride), Diazepam (diazepam tablets), protein BD-10.
Experiment grouping: • Model group: • Diazepam 2 mg/kg group; • Protein BD-10, 50 mg/kg group, 200 mg/kg group.
The drug was administered once in the afternoon the day before modeling, PLO-225 mg/kg (modeling agent) was injected intraperitoneally 1 hour after the test drug was administered intragastrically on the day of modeling. And positive drug can be administered once 20 minutes before modeling. Observe for 30 minutes after PLO injection.
Observation indicators: (1)Seizure situation: the time of seizures from Grade II to Grade IV; (2)the time to death.
Seizure grade: Refer to Racine grading standard: Grade 0: No response; Grade I: manifested as twitching of facial muscles or the corners of the mouth; Grade II: can nod; Grade III: twitching of one limb; Grade IV: rigidity or body twitching; Grade V: generalized epilepsy (generalized tonic seizures).
Count the number of Grade IV seizures and deaths in each group of mice in the experiment; Grade II, III and IV incubation period. […] Chi-square test was used for statistics of the number of cases. The mean value and standard error of the incubation period were calculated, and TTEST was used to compare the model group with other groups. P<0.05 was considered as a significant difference.

[3] = test system: yeast-induced fever model in rats; assay: Yeast-induced fever model in SD rats; assay type: in vivo; details: for Body temperature 2 hours after modeling / Body temperature 4 hours after modeling / Body temperature 6 hours after modeling / Body temperature 8 hours after modeling: 20% yeast suspension 10 ml/kg s.c., SD rats
Experimental: Animals: 230-260 grams of male SD rats; Medicines: yeast (OXOID LP0021), aspirin (SIGMA A2093), protein BD-10; Instruments: electronic balance (SARTORIUS BP121S type), electronic clinical thermometer (CITIZEN CT-513W type). Experiment grouping: • Normal control group; • Model group: yeast fever model; • Positive control group: Aspirin 300 mg/kg group; • Protein BD-10, 10 mg/kg group, 50 mg/kg group.
Preparation of experimental animals: After the experimental animals adapt to the experimental environment (temperature 22° C.±2° C., relative humidity 50%±2%) for 1 day. Pre-adaptation to measure rectal temperature at 8:00 and 15:00, rats were fasted and water was taken freely 12 h before experiment, and let the animal to empty its feces before measuring the rectal temperature. Apply petroleum jelly to the electronic thermometer probe before each temperature measurement. Insert the rat rectum 2 cm (can be marked at 2 cm to ensure that the depth of each insertion is consistent), and record the body temperature after the reading is stable.
Subcutaneous injection of dry yeast to replicate rat fever model: The body temperature of the rats was measured before modeling. Qualified rats with a body temperature of 36.2-37.3° C. were selected and randomly divided into groups with 8 rats in each group. After oral administration of aspirin and different doses of protein BD-10, 20% yeast suspension (10 ml/kg) was injected subcutaneously immediately, and the normal control group was injected intraperitoneally with an equal volume of normal saline. The body temperatures of the rats were monitored after 2 hours for a total of 8 hours.
According to the body temperature measured at each time point on the day of the experiment, calculate the mean, standard deviation and standard error of the body temperature of each group of rats. The data of each group was compared with TTEST, and P<0.05 was considered as a significant difference.

B1: BD-10: recombinant keratin with amino acid sequence SEQ ID NO:1, expressed in E. coli inclusion bodies, band around 55 kD (protein, listed as Bos taurus)
chain: MSCRSYRISPGYSVTRTFSSCSAVAPKTGSRCCITAAPYRGVSCYRGLTGFGSRSVSALGSCGPRIAVGGFRAGSCNRSFGYRSGGVGGLSPPCITTVSVNESLLTPLNLEIDPNAQCVKHEEKEQIKNLNSRFAAFIDKVRFLEQQNKLLETKWQFYQNQRCCESNLEPLFNGYIETLRREAEHVEADGGRLASELNHVQEVLEGYKKKYEEEVALRATAENEFVVLKKDVDCAYLRKSDLEANVEALVEESNFLKRLYDEEIQILNAHISDTSVIVKMDNSRDLNMDCVVAEIKAQYDDIASRSRAEAESWYRNKCEEMKATVIRHGETLRRTKEEINELNRIIQRLTAEIENAKCQRTKLEAAVAEAEQQGEAALNDARCKLAGLEEALQKAKQDMACLLKEYQEVMNSKLGLDIEIATYRRLLEGEEQRLCEGVGSVNVCVSSSRGGVTCGGLTYSTTAGRQIASGPVATGGSITVLAPDSCVPCQPRASSFSCGSSRSVRFA
Effect on excretion of phenol red (in words) ([1]; BD-10 20 mg/kg and 50 mg/kg dose groups, vs solvent control group P<0.05): significantly increased the excretion of phenol red
Phenol red excretion ([1]; BD-10 20 mg/kg oral): 0.746 ± 0.035 µg/mL
Phenol red excretion ([1]; BD-10 50 mg/kg oral): 0.668 ± 0.063 µg/mL
Expectorant effect (in words, summary) ([1]; BD-10, dose not stated): has obvious expectorant effect
Incubation period of epilepsy Grade III, comparison with model group (in words) ([2]; BD-10 50 mg/kg dose group, PLO model): statistically different from the model group
Grade IV seizure rate ([2]; BD-10 50 mg/kg intragastric): 90%
mortality rate ([2]; BD-10 50 mg/kg intragastric): 0
Grade II seizure incubation period ([2]; BD-10 50 mg/kg intragastric): 93 ± 4 s
Grade III seizure incubation period ([2]; BD-10 50 mg/kg intragastric): 166 ± 8 s
Grade IV seizure incubation period ([2]; BD-10 50 mg/kg intragastric): 871 ± 144 s
Cases of deaths ([2]; BD-10 50 mg/kg intragastric): 0
Cases of Grade IV ([2]; BD-10 50 mg/kg intragastric): 9
Grade IV seizure rate ([2]; BD-10 200 mg/kg intragastric): 70%
mortality rate ([2]; BD-10 200 mg/kg intragastric): 0
Grade II seizure incubation period ([2]; BD-10 200 mg/kg intragastric): 90 ± 6 s
Grade III seizure incubation period ([2]; BD-10 200 mg/kg intragastric): 151 ± 7 s
Grade IV seizure incubation period ([2]; BD-10 200 mg/kg intragastric): 918 ± 198 s
Cases of deaths ([2]; BD-10 200 mg/kg intragastric): 0
Cases of Grade IV ([2]; BD-10 200 mg/kg intragastric): 7
Effect on incubation period of Grade III epilepsy (in words, summary) ([2]; BD-10, dose not stated, PLO model): can significantly prolong the incubation period of Grade III epilepsy
Body temperature 2 hours after modeling ([3]; BD-10 10 mg/kg oral): 36.8 ± 0.05 °C
Body temperature 4 hours after modeling ([3]; BD-10 10 mg/kg oral): 37.2 ± 0.1 °C
Body temperature 6 hours after modeling ([3]; BD-10 10 mg/kg oral): 37.4 ± 0.1 °C
Body temperature 8 hours after modeling ([3]; BD-10 10 mg/kg oral): 37.5 ± 0.1 °C
Body temperature 2 hours after modeling ([3]; BD-10 50 mg/kg oral): 37.0 ± 0.1 °C
Body temperature 4 hours after modeling ([3]; BD-10 50 mg/kg oral): 37.4 ± 0.04 °C
Body temperature 6 hours after modeling ([3]; BD-10 50 mg/kg oral): 37.4 ± 0.01 °C
Body temperature 8 hours after modeling ([3]; BD-10 50 mg/kg oral): 37.4 ± 0.09 °C
Effect on increase in body temperature (in words, summary) ([3]; BD-10, dose not stated, 2, 4, 6 and 8 hours after modeling): can significantly inhibit the increase in body temperature
Effect on body temperature of model rats (in words) ([3]; different doses of BD-10 (10, 50 mg/kg), most time points after modeling, vs model group P<0.05): can inhibit the increase in body temperature of model rats to varying degrees
